According to patent publication US20240360242A1 (KISOJI BIOTECHNOLOGY, published 2024):
Where two headings read alike, the source gives them in different places.

Tests used:
[1] = target: T1, recombinant human TROP2 extracellular domain (aa 1-274) comprising His tag (human, UniProt P09758 27-274); experiment: SPR
T1 construct: Used here for all assays on recombinant human TROP2 (ELISA, immunoblot, SPR, crystal), although only some of them name the catalogue number; also called human recombinant TROP2; recombinant human TROP2 protein; not shown: His tag
T1 sequence: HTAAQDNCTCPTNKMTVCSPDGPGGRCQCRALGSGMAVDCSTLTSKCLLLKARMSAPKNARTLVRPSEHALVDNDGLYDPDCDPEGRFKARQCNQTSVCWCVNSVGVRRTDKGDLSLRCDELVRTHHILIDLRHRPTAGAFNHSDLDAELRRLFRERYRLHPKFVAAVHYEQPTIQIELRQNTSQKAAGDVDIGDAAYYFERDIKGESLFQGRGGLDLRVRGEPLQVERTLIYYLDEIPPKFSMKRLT

[2] = target: T2, recombinant cynomolgus/Rhesus TROP2 full-length extracellular domain (cynomolgus/Rhesus, UniProt P09758 27-274 (human entry)); experiment: SPR
T2 construct: also called cynomolgus TROP2
T2 chain: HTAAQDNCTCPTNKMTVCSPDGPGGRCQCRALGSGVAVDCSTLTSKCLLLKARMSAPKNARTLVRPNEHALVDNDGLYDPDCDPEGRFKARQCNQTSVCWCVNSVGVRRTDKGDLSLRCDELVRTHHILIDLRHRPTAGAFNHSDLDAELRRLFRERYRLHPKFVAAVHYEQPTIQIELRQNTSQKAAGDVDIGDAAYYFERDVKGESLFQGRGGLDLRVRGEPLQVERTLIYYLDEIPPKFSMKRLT

[3] = target: T1, recombinant human TROP2 extracellular …; experiment: SPR; remark: listed apart in the source
[4] = target: T1, recombinant human TROP2 extracellular …; experiment: ELISA, coated rh TROP2
Method: (§1) Human TROP2 recombinant proteins were coated on 96-well ELISA plates at the concentration of 1 μg/mL. Plates were covered with adhesive plate cover and stored at 4° C. overnight. The next day, plates were washed 3× with washing buffer (PBS with 0.1% Tween™ 20). Plates were blocked with 2% fat-free BSA in washing buffer for 1 hour at 37° C. During the incubation time, the TROP2 reference antibodies, as well as the humanized variants, were diluted in the blocking buffer to the indicated concentrations. […] After blocking, the blocking buffer was removed from the wells and 100 μL of anti-TROP2 sdAbs dilutions were transferred to the corresponding wells. Plates were covered with adhesive plates cover and incubated at 37° C. for 1 hour. During the primary antibody incubation, the secondary antibody (goat anti-human IgG, HRP conjugated) was diluted 1 in 5000 with the blocking buffer. Plates were washed 3× with blocking buffer, followed by secondary antibody incubation for another 1 hour at 37° C. After the secondary antibody incubation, plates were washed 3× with washing buffer and added with 100 μL of ELISA chemiluminescent substrate (Thermofisher). The luminescence signal was detected by SpectraMax i3x at […].

[5] = target: T1, recombinant human TROP2 extracellular …; experiment: ELISA, coated rh TROP2, normalized to KD005
[6] = target: T1, recombinant human TROP2 extracellular …; experiment: ELISA, coated rh TROP2; remark: listed apart in the source
Method: as §1

recombinant human EpCAM = target: T3, recombinant human EpCAM (human, UniProt P16422 24-265); experiment: ELISA
T3 construct: also called rhEpCAM
T3 sequence (looked up): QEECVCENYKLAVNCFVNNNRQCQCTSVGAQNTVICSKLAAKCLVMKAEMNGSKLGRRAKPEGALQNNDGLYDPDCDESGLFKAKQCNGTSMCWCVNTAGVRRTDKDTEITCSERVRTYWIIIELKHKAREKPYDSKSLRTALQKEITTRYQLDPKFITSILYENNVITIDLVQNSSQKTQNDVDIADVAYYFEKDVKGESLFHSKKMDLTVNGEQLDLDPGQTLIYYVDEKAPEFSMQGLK

[7] = target: T4, recombinant human IGFBP-1 (human, UniProt P08833 26-259); experiment: ELISA
T4 construct: also called rhIGFB-1
T4 sequence (looked up): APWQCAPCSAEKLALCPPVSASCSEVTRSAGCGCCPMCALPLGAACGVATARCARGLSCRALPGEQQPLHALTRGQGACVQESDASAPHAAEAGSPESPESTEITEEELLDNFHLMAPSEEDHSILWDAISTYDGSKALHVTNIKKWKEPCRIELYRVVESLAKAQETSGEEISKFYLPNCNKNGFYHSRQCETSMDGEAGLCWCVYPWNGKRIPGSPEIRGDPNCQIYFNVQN

human TROP2 on cells = target: T5, human TROP2 on cells (human, UniProt P09758 27-323); experiment: flow cytometry, 100 nM antibody, transiently transfected HEK cells, APC anti-human Fc
T5 construct: Full human TROP2, either transiently transfected into HEK or CHO cells or endogenous on cancer cell lines; also called HEK-TROP2; CHO-TROP2
T5 sequence: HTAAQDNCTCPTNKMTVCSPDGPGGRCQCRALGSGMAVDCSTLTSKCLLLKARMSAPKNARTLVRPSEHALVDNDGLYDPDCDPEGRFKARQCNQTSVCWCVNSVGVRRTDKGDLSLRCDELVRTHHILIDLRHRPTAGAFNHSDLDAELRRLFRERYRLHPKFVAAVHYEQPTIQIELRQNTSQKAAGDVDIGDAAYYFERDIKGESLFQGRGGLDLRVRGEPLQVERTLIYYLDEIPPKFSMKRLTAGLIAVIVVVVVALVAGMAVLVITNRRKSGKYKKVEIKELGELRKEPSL
How it was run: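 HEK parental cells transiently transfected (lipofectamine) with human TROP2 truncation mutants, harvested 24 h later and Fc-blocked 10 min at RT. Anti-TROP2 sdAbs at 100 nM bound 30 min on ice, then detected with APC anti-human Fc (30 min) and 7-AAD added for viability.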

Binder	Kd [1]	Kd [2]	Kd [3]	koff [3]	kon [3]	EC50 [4]	EC50% to KD005 [4]	EC50 relative to KD005 [5]	EC50 [6]	binding result (recombinant human EpCAM)	binding result [7]	binding result (human TROP2 on cells)
KD001 (antibody, human IgG1, V domains shown, also called anti-TROP2 sdAb KD001) VH: QVQLQESGGGMVHPGGSLRLSCAASGFTFSGSDMSWVRQAPGKGPEWVSYITSGGTTYYPDSVKGRFTISRDNAKNTLYLQMNSLTPDDTALYRCAKARLTDSHYVEDAWGQGTQVTVSS	0.0826 nM	0.0257 nM	0.0826 nM	7.54e-05 s⁻¹	913000 M⁻¹ s⁻¹	–	–	–	–	–	–	–
KD004 (antibody, human IgG1, V domains shown, also called anti-TROP2 sdAb KD004) VH: QVQLQESGGGLVQPGRSLRLSCAASGFTFSGSDMSWVRQAPGKGPEWVSYITGSGTTYYPDSVKGRFTTSRDNAKNMLYLQMNSLKPDDTALYRCAKARLTDSHYVEDAWGQGTQVTVSS	0.0294 nM	0.0358 nM	0.0294 nM	4.42e-05 s⁻¹	1.51e+06 M⁻¹ s⁻¹	–	–	–	–	–	–	–
KD005 (antibody, human IgG1, V domains shown, also called anti-TROP2 sdAb KD005) VH: QVQLQESGGGLVEAGGSLRLSCAASGFTFSGSDMSWVRQAPGKGPEWVSYITSGGTTYYPDSVKGRFTISRDNAKNTLYLQMNSLKPDDTALYRCAKSRLTDSHYVEDAWGQGTQVTVSS	0.0268 nM	0.0597 nM	0.0268 nM	4.27e-05 s⁻¹	1.59e+06 M⁻¹ s⁻¹	0.08 nM	1 ratio to KD005	1 ratio to KD005	–	–	–	–
KD002 (antibody, human IgG1, V domains shown, also called anti-TROP2 sdAb KD002) VH: QVQLQESGGGMVQVGGSLRLSCAASGFPFSSADMSWVRQAPGKGPEWVSYINADGSKTYYPDSVKGRFTISRDNAKNTLYLLMNNLKPEDTALYRCARAKLTDTHYVEDYWGQGTQVTVSS	0.0432 nM	0.0811 nM	0.0432 nM	5.69e-05 s⁻¹	1.32e+06 M⁻¹ s⁻¹	0.055 nM	0.688 ratio to KD005	–	0.07 nM	–	–	–
KD003 (antibody, human IgG1, V domains shown, also called anti-TROP2 sdAb KD003) VH: QVQLQESGGGMVQPGGSLRLSCAASGFTFSNYDMSWVRQAPGKGPEWVSYINAGGSNTDYPDSVKGRFTISRDNAKNMLYLLMNNLKPEDTALYRCARAKLTDTHYVEDYWGQGTQVTVSS	0.0893 nM	0.169 nM	0.0459 nM	4.88e-05 s⁻¹	1.06e+06 M⁻¹ s⁻¹	–	–	–	–	–	–	–
KD007 (antibody, human IgG1, V domains shown, also called anti-TROP2 sdAb KD007) VH: QVQLQESGGGLVQPGGSLRLSCAASGFAFSFYAMAWYRQAPGKQRDMVATITAYGNTNYADSVKGRFTTSRDNAKNTVYLQMNSLKPEDTAVYVCNANLPSASHNYWGQGTQVTVSS	–	–	–	–	–	–	–	–	–	no binding	no binding	binds
